Source: PMC4890538

What was measured:
[1] = biological target: recombinant Glutathione-S-Transferase (GST) tagged PfLDH (Plasmodium falciparum lactate dehydrogenase) (Plasmodium falciparum); test: fluorescence polarisation
[2] = biological target: recombinant Glutathione-S-Transferase (GST) tagged PfLDH (Plasmodium falciparum lactate dehydrogenase) (Plasmodium falciparum)

Sequence of recombinant Glutathione-S-Transferase (GST) tagged PfLDH (Plasmodium falciparum lactate dehydrogenase) (Plasmodium falciparum) (Q27743 whole entry): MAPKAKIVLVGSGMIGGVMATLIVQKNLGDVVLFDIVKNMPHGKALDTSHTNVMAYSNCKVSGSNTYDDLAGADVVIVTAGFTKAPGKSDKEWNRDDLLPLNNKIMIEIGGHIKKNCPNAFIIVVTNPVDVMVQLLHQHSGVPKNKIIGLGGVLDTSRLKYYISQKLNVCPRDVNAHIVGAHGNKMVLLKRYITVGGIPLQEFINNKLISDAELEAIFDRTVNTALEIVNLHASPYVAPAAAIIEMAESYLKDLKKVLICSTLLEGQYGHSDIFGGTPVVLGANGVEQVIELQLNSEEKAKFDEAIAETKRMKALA

Binder	Kd [1] [nM]	EC50 [2] [nM]
HWSAN (not fully specified) [Cy(HWSAN-click), fluorescein tagged]	40.6	
HWSAN (not fully specified) [Cy(HWSAN-click), biotin tagged]		23.4
